From patent publication US20200264182A1, “METHOD FOR DETECTING PROSTATE CANCER” (J-OIL MILLS, INC., priority 2017, published 2020)

Key:
[1] = Binding to sugar chains, summary of Tables 2 to 5
Protocol: (§1) Details of the FAC method are described in Patent Document 2 filed by some of the present applicants, for example.
(§2) Binding constants (at 25° C.) of PhoSL, SRL, NSL and LSL belonging to the fucose α1→6 specific lectin for various sugar chains are shown in Tables 2 to 5.
The AAL and AOL bind to the fucose α1→6 sugar chains (sugar chains No. 015, 201 to 203, and 401 to 418), as well as to the glycolipid-type sugar chain excluding the fucose α1→6 (sugar chains No. 718, 722, 723, 727, 909, 910 and 933). The LCL and PSL bind to the fucose α1→6 sugar chain, as well as to sugar chain excluding the α1→6 fucose (sugar chains No. 003, and 005 to 014).
Furthermore, the binding constant of the fucose α1→6 specific lectin is not decreased even if a sialic acid is added to the fucose α1→6 sugar chain (sugar chains No. 601 and 602). In addition, the fucose α1→6 specific lectin also strongly binds to the triple-strand (sugar chains No. 407 to 413) and the four-strand (sugar chains No. 418) of the fucose uα1→6 sugar chain.

FAC binding constant = details: at 25° C.
Protocol: as §1, §2

[2] = FAC binding constant (Table 5 entry); details: Table 5: sugar chain having no fucose; at 25° C.
Protocol: as §1, §2

[3] = sugar chain having fucose other than α1→6 fucose

- binding to sugar chain excluding the α1→6 fucose (in words) ([1]; sugar chains No. 003, and 005 to 014 for LCL and PSL): bind
- binding to the fucose α1→6 sugar chains (in words) ([1]; sugar chains No. 015, 201 to 203, and 401 to 418): bind
- Binding constant for sugar chain No. 728 (FAC binding constant; Table 3: sugar chain having fucose other than α1→6 fucose): <1000 M⁻¹
- Binding constant for sugar chain No. 419 (FAC binding constant; [3]): <1000 M⁻¹
- Binding constant for sugar chain No. 420 (FAC binding constant; [3]): <1000 M⁻¹
- Binding constant for sugar chain No. 718 (FAC binding constant; [3]): <1000 M⁻¹
- Binding constant for sugar chain No. 719 (FAC binding constant; [3]): <1000 M⁻¹
- Binding constant for sugar chain No. 720 (FAC binding constant; [3]): <1000 M⁻¹
- Binding constant for sugar chain No. 721 (FAC binding constant; [3]): <1000 M⁻¹
- Binding constant for sugar chain No. 722 (FAC binding constant; [3]): <1000 M⁻¹
- Binding constant for sugar chain No. 723 (FAC binding constant; [3]): <1000 M⁻¹
- Binding constant for sugar chain No. 726 (FAC binding constant; [3]): <1000 M⁻¹
- Binding constant for sugar chain No. 727 (FAC binding constant; [3]): <1000 M⁻¹
- Binding constant for sugar chain No. 729 (FAC binding constant; [3]): <1000 M⁻¹
- Binding constant for sugar chain No. 730 (FAC binding constant; [3]): <1000 M⁻¹
- Binding constant for sugar chain No. 731 (FAC binding constant; [3]): <1000 M⁻¹
- Binding constant for sugar chain No. 739 (FAC binding constant; [3]): <1000 M⁻¹
- Binding constant for sugar chain No. 909 (FAC binding constant; [3]): <1000 M⁻¹
- Binding constant for sugar chain No. 910 (FAC binding constant; [3]): <1000 M⁻¹
- Binding constant for sugar chain No. 931 (FAC binding constant; [3]): <1000 M⁻¹
- Binding constant for sugar chain No. 932 (FAC binding constant; [3]): <1000 M⁻¹
- Binding constant for sugar chain No. 933 (FAC binding constant; [3]): <1000 M⁻¹
- Binding constant for sugar chain No. 001 (FAC binding constant; sugar chain having no fucose): <1000 M⁻¹
- Binding constant for sugar chain No. 002 (FAC binding constant; sugar chain having no fucose): <1000 M⁻¹
- Binding constant for sugar chain No. 003 (FAC binding constant; sugar chain having no fucose): 7200 M⁻¹
- Binding constant for sugar chain No. 004 (FAC binding constant; sugar chain having no fucose): <1000 M⁻¹
- Binding constant for sugar chain No. 005 (FAC binding constant; sugar chain having no fucose): <1000 M⁻¹
- Binding constant for sugar chain No. 006 (FAC binding constant; sugar chain having no fucose): 14000 M⁻¹
- Binding constant for sugar chain No. 007 (FAC binding constant; sugar chain having no fucose): <1000 M⁻¹
- Binding constant for sugar chain No. 008 (FAC binding constant; sugar chain having no fucose): 18000 M⁻¹
- Binding constant for sugar chain No. 009 (FAC binding constant; sugar chain having no fucose): 18000 M⁻¹
- Binding constant for sugar chain No. 010 (FAC binding constant; sugar chain having no fucose): 13000 M⁻¹
- Binding constant for sugar chain No. 011 (FAC binding constant; sugar chain having no fucose): 14000 M⁻¹
- Binding constant for sugar chain No. 012 (FAC binding constant; sugar chain having no fucose): 25000 M⁻¹
- Binding constant for sugar chain No. 013 (FAC binding constant; sugar chain having no fucose): 17000 M⁻¹
- Binding constant for sugar chain No. 014 (FAC binding constant; sugar chain having no fucose): 17000 M⁻¹
- Binding constant for sugar chain No. 101 (FAC binding constant; sugar chain having no fucose): <1000 M⁻¹
- Binding constant for sugar chain No. 103 (FAC binding constant; sugar chain having no fucose): <1000 M⁻¹
- Binding constant for sugar chain No. 104 (FAC binding constant; sugar chain having no fucose): <1000 M⁻¹
- Binding constant for sugar chain No. 105 (FAC binding constant; sugar chain having no fucose): <1000 M⁻¹
- Binding constant for sugar chain No. 107 (FAC binding constant; sugar chain having no fucose): <1000 M⁻¹
- Binding constant for sugar chain No. 108 (FAC binding constant; sugar chain having no fucose): <1000 M⁻¹
- Binding constant for sugar chain No. 301 (FAC binding constant; sugar chain having no fucose): <1000 M⁻¹
- Binding constant for sugar chain No. 304 (FAC binding constant; sugar chain having no fucose): <1000 M⁻¹
- Binding constant for sugar chain No. 305 (FAC binding constant; sugar chain having no fucose): <1000 M⁻¹
- Binding constant for sugar chain No. 307 (FAC binding constant; sugar chain having no fucose): <1000 M⁻¹
- Binding constant for sugar chain No. 308 (FAC binding constant; sugar chain having no fucose): <1000 M⁻¹
- Binding constant for sugar chain No. 313 (FAC binding constant; sugar chain having no fucose): <1000 M⁻¹
- Binding constant for sugar chain No. 314 (FAC binding constant; sugar chain having no fucose): <1000 M⁻¹
- Binding constant for sugar chain No. 323 (FAC binding constant; sugar chain having no fucose): <1000 M⁻¹
- Binding constant for sugar chain No. 501 (FAC binding constant; sugar chain having no fucose): <1000 M⁻¹
- Binding constant for sugar chain No. 502 (FAC binding constant; sugar chain having no fucose): <1000 M⁻¹
- Binding constant for sugar chain No. 503 (FAC binding constant; sugar chain having no fucose): <1000 M⁻¹
- Binding constant for sugar chain No. 504 (FAC binding constant; sugar chain having no fucose): <1000 M⁻¹
- Binding constant for sugar chain No. 701 (FAC binding constant; sugar chain having no fucose): <1000 M⁻¹
- Binding constant for sugar chain No. 702 (FAC binding constant; sugar chain having no fucose): <1000 M⁻¹
- Binding constant for sugar chain No. 703 (FAC binding constant; sugar chain having no fucose): <1000 M⁻¹
- Binding constant for sugar chain No. 704 (FAC binding constant; sugar chain having no fucose): <1000 M⁻¹
- Binding constant for sugar chain No. 705 (FAC binding constant; sugar chain having no fucose): <1000 M⁻¹
- Binding constant for sugar chain No. 706 (FAC binding constant; sugar chain having no fucose): <1000 M⁻¹
- Binding constant for sugar chain No. 707 (FAC binding constant; sugar chain having no fucose): <1000 M⁻¹
- Binding constant for sugar chain No. 708 (FAC binding constant; sugar chain having no fucose): <1000 M⁻¹
- Binding constant for sugar chain No. 709 (FAC binding constant; sugar chain having no fucose): <1000 M⁻¹
- Binding constant for sugar chain No. 710 (FAC binding constant; sugar chain having no fucose): <1000 M⁻¹
- Binding constant for sugar chain No. 711 (FAC binding constant; sugar chain having no fucose): <1000 M⁻¹
- Binding constant for sugar chain No. 712 (FAC binding constant; sugar chain having no fucose): <1000 M⁻¹
- Binding constant for sugar chain No. 713 (FAC binding constant; sugar chain having no fucose): <1000 M⁻¹
- Binding constant for sugar chain No. 715 (FAC binding constant; sugar chain having no fucose): <1000 M⁻¹
- Binding constant for sugar chain No. 716 (FAC binding constant; sugar chain having no fucose): <1000 M⁻¹
- Binding constant for sugar chain No. 717 (FAC binding constant; sugar chain having no fucose): <1000 M⁻¹
- Binding constant for sugar chain No. 724 (FAC binding constant; sugar chain having no fucose): <1000 M⁻¹
- Binding constant for sugar chain No. 725 (FAC binding constant; sugar chain having no fucose): <1000 M⁻¹
- Binding constant for sugar chain No. 732 (FAC binding constant; sugar chain having no fucose): <1000 M⁻¹
- Binding constant for sugar chain No. 733 (FAC binding constant; sugar chain having no fucose): <1000 M⁻¹
- Binding constant for sugar chain No. 734 (FAC binding constant; sugar chain having no fucose): <1000 M⁻¹
- Binding constant for sugar chain No. 735 (FAC binding constant; sugar chain having no fucose): <1000 M⁻¹
- Binding constant for sugar chain No. 736 (FAC binding constant; sugar chain having no fucose): <1000 M⁻¹
- Binding constant for sugar chain No. 737 (FAC binding constant; sugar chain having no fucose): <1000 M⁻¹
- Binding constant for sugar chain No. 738 (FAC binding constant; sugar chain having no fucose): <1000 M⁻¹
- Binding constant for sugar chain No. 901 (FAC binding constant; sugar chain having no fucose): <1000 M⁻¹
- Binding constant for sugar chain No. 902 (FAC binding constant; sugar chain having no fucose): <1000 M⁻¹
- Binding constant for sugar chain No. 903 (FAC binding constant; sugar chain having no fucose): <1000 M⁻¹
- Binding constant for sugar chain No. 905 (FAC binding constant; sugar chain having no fucose): <1000 M⁻¹
- Binding constant for sugar chain No. 906 (FAC binding constant; sugar chain having no fucose): <1000 M⁻¹
- Binding constant for sugar chain No. 907 (FAC binding constant; sugar chain having no fucose): <1000 M⁻¹
- Binding constant for sugar chain No. 015 (FAC binding constant; sugar chain having α1→6 fucose): 56000 M⁻¹
- Binding constant for sugar chain No. 201 (FAC binding constant; sugar chain having α1→6 fucose): 500000 M⁻¹
- Binding constant for sugar chain No. 202 (FAC binding constant; sugar chain having α1→6 fucose): 110000 M⁻¹
- Binding constant for sugar chain No. 203 (FAC binding constant; sugar chain having α1→6 fucose): 730000 M⁻¹
- Binding constant for sugar chain No. 401 (FAC binding constant; sugar chain having α1→6 fucose): 42000 M⁻¹
- Binding constant for sugar chain No. 402 (FAC binding constant; sugar chain having α1→6 fucose): 59000 M⁻¹
- Binding constant for sugar chain No. 403 (FAC binding constant; sugar chain having α1→6 fucose): 99000 M⁻¹
- Binding constant for sugar chain No. 404 (FAC binding constant; sugar chain having α1→6 fucose): 58000 M⁻¹
- Binding constant for sugar chain No. 405 (FAC binding constant; sugar chain having α1→6 fucose): 47000 M⁻¹
- Binding constant for sugar chain No. 406 (FAC binding constant; sugar chain having α1→6 fucose): 18000 M⁻¹
- Binding constant for sugar chain No. 407 (FAC binding constant; sugar chain having α1→6 fucose): 1000 M⁻¹
- Binding constant for sugar chain No. 410 (FAC binding constant; sugar chain having α1→6 fucose): <1000 M⁻¹
- Binding constant for sugar chain No. 413 (FAC binding constant; sugar chain having α1→6 fucose): <1000 M⁻¹
- Binding constant for sugar chain No. 418 (FAC binding constant; sugar chain having α1→6 fucose): <1000 M⁻¹
- Binding constant for sugar chain No. 601 (FAC binding constant; sugar chain having α1→6 fucose): 30000 M⁻¹
- Binding constant for sugar chain No. 602 (FAC binding constant; sugar chain having α1→6 fucose): 24000 M⁻¹
- Binding constant for sugar chain No. 728 [2]: <1000 M⁻¹
B1: LCL: Lens culinaris lectin, affinity for fucose α1→6 but not specific (protein)
chain 1: TETTSFSITKFSPDQKNLIFQGDGYTTKGKLTLTKAVKSTVGRALYSTPIHIWDRDTGNVANFVTSFTFVIDAPSSYNVADEFTFFIAPVDTKPQTGGGYLGVFNSKEYDKTSQTVAVEFDTFYNAAWDPSNKERHIGIDVNSIKSVNTKSWNLQNGERANVVIAFNAATNVLTVTLTYP
chain 2: VTSYTLNEVVPLKDVVPEWVRIGFSATTGAEFAAHEVHSWSFHSELGGTSSS
